Laboratory results as given in PMC5913336, “True equilibrium measurement of transcription factor-DNA binding affinities using automated polarization microscopy”.

B1: Bcd consensus (dsDNA)
DNA 1: TCGACGGTAATCCCTA
DNA 2: TAGGGATTACCGTCGA
B2: Bcd oligo 6 (dsDNA)
DNA 1: TCGACAGTAATCCCTA
DNA 2: TAGGGATTACTGTCGA
B3: Bcd oligo 5 (dsDNA)
DNA 1: TCGACTGTAATCCCTA
DNA 2: TAGGGATTACAGTCGA
B4: Bcd oligo 1 (dsDNA)
DNA 1: TCGAGGGTAATCCCTA
DNA 2: TAGGGATTACCCTCGA
B5: Bcd oligo 2 (dsDNA)
DNA 1: TCGATGGTAATCCCTA
DNA 2: TAGGGATTACCATCGA
B6: Bcd oligo 19 (dsDNA)
DNA 1: TCGACGGTAACCCCTA
DNA 2: TAGGGGTTACCGTCGA
B7: Bcd oligo 15 (dsDNA)
DNA 1: TCGACGGTTATCCCTA
DNA 2: TAGGGATAACCGTCGA
B8: Bcd oligo 4 (dsDNA)
DNA 1: TCGACCGTAATCCCTA
DNA 2: TAGGGATTACGGTCGA
B9: Bcd oligo 17 (dsDNA)
DNA 1: TCGACGGTAGTCCCTA
DNA 2: TAGGGACTACCGTCGA
B10: Bcd oligo 12 (dsDNA)
DNA 1: TCGACGGAAATCCCTA
DNA 2: TAGGGATTTCCGTCGA
B11: Bcd oligo 32 (dsDNA)
DNA 1: TCGACGGTAATCCCGA
DNA 2: TCGGGATTACCGTCGA
B12: Bcd oligo 7 (dsDNA)
DNA 1: TCGACGCTAATCCCTA
DNA 2: TAGGGATTAGCGTCGA
B13: Bcd oligo 16 (dsDNA)
DNA 1: TCGACGGTACTCCCTA
DNA 2: TAGGGAGTACCGTCGA
B14: Bcd oligo 11 (dsDNA)
DNA 1: TCGACGGGAATCCCTA
DNA 2: TAGGGATTCCCGTCGA
B15: Bcd oligo 28 (dsDNA)
DNA 1: TCGACGGTAATCCGTA
DNA 2: TACGGATTACCGTCGA
B16: Bcd oligo 21 (dsDNA)
DNA 1: TCGACGGTAAACCCTA
DNA 2: TAGGGTTTACCGTCGA
B17: Bcd oligo 23 (dsDNA)
DNA 1: TCGACGGTAATTCCTA
DNA 2: TAGGAATTACCGTCGA
B18: Bcd oligo 27 (dsDNA)
DNA 1: TCGACGGTAATCACTA
DNA 2: TAGTGATTACCGTCGA
B19: Bcd oligo 31 (dsDNA)
DNA 1: TCGACGGTAATCCCCA
DNA 2: TGGGGATTACCGTCGA
B20: Bcd oligo 20 (dsDNA)
DNA 1: TCGACGGTAAGCCCTA
DNA 2: TAGGGCTTACCGTCGA
B21: Bcd oligo 3 (dsDNA)
DNA 1: TCGAAGGTAATCCCTA
DNA 2: TAGGGATTACCTTCGA
B22: Bcd oligo 13 (dsDNA)
DNA 1: TCGACGGTCATCCCTA
DNA 2: TAGGGATGACCGTCGA
B23: Bcd oligo 22 (dsDNA)
DNA 1: TCGACGGTAATGCCTA
DNA 2: TAGGCATTACCGTCGA
B24: Bcd oligo 14 (dsDNA)
DNA 1: TCGACGGTGATCCCTA
DNA 2: TAGGGATCACCGTCGA
B25: Bcd oligo 30 (dsDNA)
DNA 1: TCGACGGTAATCCATA
DNA 2: TATGGATTACCGTCGA
B26: Bcd oligo 18 (dsDNA)
DNA 1: TCGACGGTATTCCCTA
DNA 2: TAGGGAATACCGTCGA
B27: Bcd oligo 8 (dsDNA)
DNA 1: TCGACGTTAATCCCTA
DNA 2: TAGGGATTAACGTCGA
B28: Bcd oligo 26 (dsDNA)
DNA 1: TCGACGGTAATCTCTA
DNA 2: TAGAGATTACCGTCGA
B29: Bcd oligo 25 (dsDNA)
DNA 1: TCGACGGTAATCGCTA
DNA 2: TAGCGATTACCGTCGA
B30: Bcd oligo 24 (dsDNA)
DNA 1: TCGACGGTAATACCTA
DNA 2: TAGGTATTACCGTCGA
B31: Bcd oligo 33 (dsDNA)
DNA 1: TCGACGGTAATCCCAA
DNA 2: TTGGGATTACCGTCGA
B32: Bcd oligo 29 (dsDNA)
DNA 1: TCGACGGTAATCCTTA
DNA 2: TAAGGATTACCGTCGA
B33: Bcd oligo 10 (dsDNA)
DNA 1: TCGACGGCAATCCCTA
DNA 2: TAGGGATTGCCGTCGA
B34: Bcd oligo 9 (dsDNA)
DNA 1: TCGACGATAATCCCTA
DNA 2: TAGGGATTATCGTCGA
B35: Bcd EMSA 16-mer (dsDNA)
DNA 1: TCGACCGTAATCCCTA
DNA 2: TAGGGATTACGGTCGA
B36: Bcd competitor 12 (T4A) (dsDNA)
DNA 1: TCGACGGAAATCCCTA
DNA 2: TAGGGATTTCGGTCGA
B37: Bcd competitor 11 (T4G) (dsDNA)
DNA 1: TCGACGGGAATCCCTA
DNA 2: TAGGGATTCCGGTCGA
B38: Bcd competitor 10 (T4C) (dsDNA)
DNA 1: TCGACGGCAATCCCTA
DNA 2: TAGGGATTGCGGTCGA
B39: Bcd competitor 8 (G3T) (dsDNA)
DNA 1: TCGACGTTAATCCCTA
DNA 2: TAGGGATTAAGGTCGA
B40: Bcd competitor 9 (G3A) (dsDNA)
DNA 1: TCGACGATAATCCCTA
DNA 2: TAGGGATTATGGTCGA
B41: Bcd consensus CGGTAATCCCT (dsDNA)
DNA 1: TCGACGGTAATCCCTA
DNA 2: TAGGGATTACCGTCGA

target: T1, Bcd homeodomain (Drosophila melanogaster, UniProt P09081-2 77-166); assay: FP; 33 mM phosphate pH 7.0, 90 mM NaCl, 0.01% Tween 20, 0.1 mM DTT, 0.5% agarose; room temperature; conditions: tags: N-GST (pGEX-6P-1, kept)
T1 sequence: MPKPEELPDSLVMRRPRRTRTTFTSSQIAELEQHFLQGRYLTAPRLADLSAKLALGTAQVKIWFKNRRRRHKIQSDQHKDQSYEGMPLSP

For B1, which Kd is on record?
The Kd was 2.2 nM.

Which Kd does the source give for B2 here?
Its Kd is 5.86 nM.

B3 was tested. Which Kd did it give?
The Kd was 6.66 nM.

same assay, conditions: tags: N-GST (pGEX-6P-1, kept); printed reverse strand differs at base 6 of strand 1 (G / C); complement of the forward strand used

How did the Kd turn out when B4 was run?
Its Kd is 2.7 nM.

How did the Kd turn out when B5 was run?
Its Kd is 2.66 nM.

For B6, which Kd is on record?
Its Kd is 94.1 nM.

B7 was tested. Which Kd did it give?
Its Kd is 29.4 nM.

Which Kd does the source give for B8 here?
The Kd was 5.02 nM.

B9 was tested. Which Kd did it give?
Its Kd is 45.8 nM.

How did the Kd turn out when B10 was run?
Its Kd is 12.9 nM.

How did the Kd turn out when B11 was run?
The Kd was 5.08 nM.

B12 was tested. Which Kd did it give?
The Kd was 2.79 nM.

With B13 as the molecule, how does the Kd read?
Its Kd is 146 nM.

For B14, which Kd is on record?
The Kd was 21.4 nM.

How did the Kd turn out when B15 was run?
The Kd was 3.67 nM.

B16 was tested. Which Kd did it give?
Its Kd is 48.8 nM.

Which Kd does the source give for B17 here?
The Kd was 27.2 nM.

Which Kd does the source give for B18 here?
Its Kd is 12.7 nM.

For B19, which Kd is on record?
Its Kd is 3.8 nM.

Which Kd does the source give for B20 here?
The Kd was 18.8 nM.

For B21, which Kd is on record?
The Kd was 3.76 nM.

B22 was tested. Which Kd did it give?
Its Kd is 64.3 nM.

With B23 as the molecule, how does the Kd read?
Its Kd is 92.1 nM.

Which Kd does the source give for B24 here?
Its Kd is 8.98 nM.

For B25, which Kd is on record?
The Kd was 5.18 nM.

With B26 as the molecule, how does the Kd read?
Its Kd is 128 nM.

B27 was tested. Which Kd did it give?
Its Kd is 2.83 nM.

B28 was tested. Which Kd did it give?
Its Kd is 7.79 nM.

How did the Kd turn out when B29 was run?
The Kd was 14.1 nM.

How did the Kd turn out when B30 was run?
The Kd was 47.8 nM.

With B31 as the molecule, how does the Kd read?
Its Kd is 4.71 nM.

With B32 as the molecule, how does the Kd read?
Its Kd is 4.03 nM.

With B33 as the molecule, how does the Kd read?
The Kd was 20.6 nM.

With B34 as the molecule, how does the Kd read?
The Kd was 3.8 nM.

target: T2, Bicoid DBD-GST (Bcd) (UniProt P09081 83-170); assay: EMSA; direct titration; HiP-FA: 33 mM phosphate pH 7.0, 90 mM NaCl, 0.01% Tween 20, 0.1 mM DTT, 0.5% agarose; conventional titration and EMSA: 20 mM Tris-acetate pH 7.0, 50 nM (sic) NaCl, 0.01% Tween-20, 0.1 mM DTT; conditions: protein: recombinant; tags: N-terminal GST; label: Cy3; blunt
T2 sequence: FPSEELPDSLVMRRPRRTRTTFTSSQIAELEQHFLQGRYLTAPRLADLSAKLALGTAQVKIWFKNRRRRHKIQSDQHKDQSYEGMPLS

How did the Kd turn out when B35 was run?
Its Kd is 1.8 ± 0.2 nM.

target: T2, Bicoid DBD-GST (Bcd); assay: competitive fluorescence anisotropy (HiP-FA); mean of replicates 13.103, 12.6865; HiP-FA: 33 mM phosphate pH 7.0, 90 mM NaCl, 0.01% Tween 20, 0.1 mM DTT, 0.5% agarose; conventional titration and EMSA: 20 mM Tris-acetate pH 7.0, 50 nM (sic) NaCl, 0.01% Tween-20, 0.1 mM DTT; conditions: protein: recombinant; tags: N-terminal GST; blunt, G:G mismatch at position 6

With B36 as the molecule, how does the Kd read?
Its Kd is 12.9 nM.

tested on: Caudal DBD-GST (Cad); assay: competitive fluorescence anisotropy (conventional titration); conditions: HiP-FA: 33 mM phosphate pH 7.0, 90 mM NaCl, 0.01% Tween 20, 0.1 mM DTT, 0.5% agarose; conventional titration and EMSA: 20 mM Tris-acetate pH 7.0, 50 nM …

How did the Kd turn out when Cad consensus oligo was run?
Its Kd is 0.05 nM.

tested on: Giant DBD-GST (Gt); assay: competitive fluorescence anisotropy (HiP-FA); conditions: HiP-FA: 33 mM phosphate pH 7.0, 90 mM NaCl, 0.01% Tween 20, 0.1 mM DTT, 0.5% agarose; conventional titration and EMSA: 20 mM Tris-acetate pH 7.0, 50 nM …

Gt consensus oligo was tested. Which Kd did it give?
Its Kd is 0.9 nM.

tested on: Ttk-F DBD-GST; assay: competitive fluorescence anisotropy (HiP-FA); conditions: HiP-FA: 33 mM phosphate pH 7.0, 90 mM NaCl, 0.01% Tween 20, 0.1 mM DTT, 0.5% agarose; conventional titration and EMSA: 20 mM Tris-acetate pH 7.0, 50 nM …

With Ttk-F consensus oligo as the molecule, how does the Kd read?
The Kd was 48 nM.

target: T2, Bicoid DBD-GST (Bcd); assay: competitive fluorescence anisotropy (HiP-FA); mean of replicates 20.981, 21.8595; HiP-FA: 33 mM phosphate pH 7.0, 90 mM NaCl, 0.01% Tween 20, 0.1 mM DTT, 0.5% agarose; conventional titration and EMSA: 20 mM Tris-acetate pH 7.0, 50 nM (sic) NaCl, 0.01% Tween-20, 0.1 mM DTT; conditions: protein: recombinant; tags: N-terminal GST; blunt, G:G mismatch at position 6

B37 was tested. Which Kd did it give?
Its Kd is 21.4 nM.

target: T2, Bicoid DBD-GST (Bcd); assay: competitive fluorescence anisotropy (HiP-FA); mean of replicates 18.854, 22.285; HiP-FA: 33 mM phosphate pH 7.0, 90 mM NaCl, 0.01% Tween 20, 0.1 mM DTT, 0.5% agarose; conventional titration and EMSA: 20 mM Tris-acetate pH 7.0, 50 nM (sic) NaCl, 0.01% Tween-20, 0.1 mM DTT; conditions: protein: recombinant; tags: N-terminal GST; blunt, G:G mismatch at position 6

For B38, which Kd is on record?
Its Kd is 20.6 nM.

target: T2, Bicoid DBD-GST (Bcd); assay: competitive fluorescence anisotropy (HiP-FA); mean of replicates 2.83, 2.8405; HiP-FA: 33 mM phosphate pH 7.0, 90 mM NaCl, 0.01% Tween 20, 0.1 mM DTT, 0.5% agarose; conventional titration and EMSA: 20 mM Tris-acetate pH 7.0, 50 nM (sic) NaCl, 0.01% Tween-20, 0.1 mM DTT; conditions: protein: recombinant; tags: N-terminal GST; blunt, G:G mismatch at position 6

With B39 as the molecule, how does the Kd read?
Its Kd is 2.83 nM.

target: T2, Bicoid DBD-GST (Bcd); assay: competitive fluorescence anisotropy (HiP-FA); mean of replicates 3.766, 3.8365; HiP-FA: 33 mM phosphate pH 7.0, 90 mM NaCl, 0.01% Tween 20, 0.1 mM DTT, 0.5% agarose; conventional titration and EMSA: 20 mM Tris-acetate pH 7.0, 50 nM (sic) NaCl, 0.01% Tween-20, 0.1 mM DTT; conditions: protein: recombinant; tags: N-terminal GST; blunt, G:G mismatch at position 6

For B40, which Kd is on record?
The Kd was 3.8 nM.

target: T2, Bicoid DBD-GST (Bcd); assay: competitive fluorescence anisotropy (HiP-FA); HiP-FA: 33 mM phosphate pH 7.0, 90 mM NaCl, 0.01% Tween 20, 0.1 mM DTT, 0.5% agarose; conventional titration and EMSA: 20 mM Tris-acetate pH 7.0, 50 nM (sic) NaCl, 0.01% Tween-20, 0.1 mM DTT; conditions: protein: recombinant; tags: N-terminal GST; blunt

How did the Kd turn out when B41 was run?
The Kd was 2.2 nM.
